Key:
Settings in all cases: both partners purified
GST-MTR4-∆N = target: T1, GST-MTR4-∆N (human, UniProt P42285 75-1042); experiment: pull-down; GST-MTR4∆N (WT or mutants) as bait, 30 μM, with 60 μM Trx-NOP53^84–123 in 30 μl, glutathione sepharose; 50 mM Hepes pH 7.5, 150 mM NaCl, 5% glycerol, 0.05% NP40, 1 mM DTT, 4 °C; SDS-PAGE, Coomassie
T1 construct: Tag is cleavable with 3C protease; kept for the GST pull-downs; also called GST-tagged MTR4∆N; source: E. coli BL21 star (DE3), purified (Ni-NTA, heparin, SEC); not shown: 6xHis-GST, N-terminal, kept
T1 sequence (looked up): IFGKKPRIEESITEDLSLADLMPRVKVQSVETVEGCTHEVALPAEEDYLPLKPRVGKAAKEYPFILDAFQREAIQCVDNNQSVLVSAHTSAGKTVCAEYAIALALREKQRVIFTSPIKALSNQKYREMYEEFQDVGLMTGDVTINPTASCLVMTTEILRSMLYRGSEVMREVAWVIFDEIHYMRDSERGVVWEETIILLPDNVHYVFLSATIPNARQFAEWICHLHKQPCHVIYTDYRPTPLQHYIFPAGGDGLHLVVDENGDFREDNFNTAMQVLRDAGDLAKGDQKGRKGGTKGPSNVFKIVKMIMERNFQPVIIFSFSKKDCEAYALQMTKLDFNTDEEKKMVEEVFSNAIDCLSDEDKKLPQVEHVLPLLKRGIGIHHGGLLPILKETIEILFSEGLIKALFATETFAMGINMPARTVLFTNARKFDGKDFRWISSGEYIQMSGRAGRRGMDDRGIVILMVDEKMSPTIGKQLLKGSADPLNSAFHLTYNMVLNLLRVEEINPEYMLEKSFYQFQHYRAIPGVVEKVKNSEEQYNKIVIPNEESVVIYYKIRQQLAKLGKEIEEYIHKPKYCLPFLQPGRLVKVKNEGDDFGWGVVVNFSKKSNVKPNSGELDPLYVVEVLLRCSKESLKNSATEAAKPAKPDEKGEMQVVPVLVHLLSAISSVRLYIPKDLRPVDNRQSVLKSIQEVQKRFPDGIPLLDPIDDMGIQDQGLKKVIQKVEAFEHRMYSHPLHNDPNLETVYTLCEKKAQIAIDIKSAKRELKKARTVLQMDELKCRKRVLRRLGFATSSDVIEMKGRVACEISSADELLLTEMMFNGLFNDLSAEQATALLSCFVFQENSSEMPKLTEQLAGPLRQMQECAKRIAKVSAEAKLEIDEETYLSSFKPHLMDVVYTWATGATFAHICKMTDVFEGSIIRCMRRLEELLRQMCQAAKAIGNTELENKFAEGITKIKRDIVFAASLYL

GST-MTR4∆N F677E = target: T2, GST-MTR4∆N F677E (human, UniProt P42285 75-1042, F677E); experiment: as above
T2 construct: source: E. coli BL21 star (DE3), purified (Ni-NTA, heparin, SEC); not shown: 6xHis-GST, N-terminal, kept
T2 sequence (looked up): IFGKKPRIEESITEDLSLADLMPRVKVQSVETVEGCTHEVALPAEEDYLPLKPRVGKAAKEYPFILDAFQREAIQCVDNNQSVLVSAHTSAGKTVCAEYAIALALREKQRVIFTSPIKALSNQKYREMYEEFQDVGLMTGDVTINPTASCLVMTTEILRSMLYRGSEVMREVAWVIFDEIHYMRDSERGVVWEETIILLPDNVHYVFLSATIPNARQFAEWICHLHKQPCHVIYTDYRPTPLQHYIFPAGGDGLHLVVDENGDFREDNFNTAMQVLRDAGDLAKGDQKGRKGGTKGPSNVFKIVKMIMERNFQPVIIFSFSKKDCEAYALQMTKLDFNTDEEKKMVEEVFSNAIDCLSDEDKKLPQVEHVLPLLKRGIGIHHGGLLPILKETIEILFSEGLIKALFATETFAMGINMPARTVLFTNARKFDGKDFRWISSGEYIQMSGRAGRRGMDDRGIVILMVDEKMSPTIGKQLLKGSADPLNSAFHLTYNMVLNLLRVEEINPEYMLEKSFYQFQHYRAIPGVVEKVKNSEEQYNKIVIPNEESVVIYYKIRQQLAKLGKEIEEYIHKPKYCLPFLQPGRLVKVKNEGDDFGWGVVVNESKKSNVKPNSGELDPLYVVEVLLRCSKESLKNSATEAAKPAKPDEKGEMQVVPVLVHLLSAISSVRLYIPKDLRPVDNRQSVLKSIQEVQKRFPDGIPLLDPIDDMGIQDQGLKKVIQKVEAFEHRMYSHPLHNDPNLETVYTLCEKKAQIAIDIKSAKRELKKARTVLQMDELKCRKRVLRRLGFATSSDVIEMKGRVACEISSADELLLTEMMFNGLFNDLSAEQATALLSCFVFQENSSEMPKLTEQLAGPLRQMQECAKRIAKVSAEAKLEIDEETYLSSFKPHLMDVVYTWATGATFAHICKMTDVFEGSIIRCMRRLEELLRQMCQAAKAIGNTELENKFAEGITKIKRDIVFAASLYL

GST-MTR4∆N R743E = target: T3, GST-MTR4∆N R743E (human, UniProt P42285 75-1042, R743E); experiment: as above
T3 construct: also called R743E mutant; source: E. coli BL21 star (DE3), purified (Ni-NTA, heparin, SEC); not shown: 6xHis-GST, N-terminal, kept
T3 sequence (looked up): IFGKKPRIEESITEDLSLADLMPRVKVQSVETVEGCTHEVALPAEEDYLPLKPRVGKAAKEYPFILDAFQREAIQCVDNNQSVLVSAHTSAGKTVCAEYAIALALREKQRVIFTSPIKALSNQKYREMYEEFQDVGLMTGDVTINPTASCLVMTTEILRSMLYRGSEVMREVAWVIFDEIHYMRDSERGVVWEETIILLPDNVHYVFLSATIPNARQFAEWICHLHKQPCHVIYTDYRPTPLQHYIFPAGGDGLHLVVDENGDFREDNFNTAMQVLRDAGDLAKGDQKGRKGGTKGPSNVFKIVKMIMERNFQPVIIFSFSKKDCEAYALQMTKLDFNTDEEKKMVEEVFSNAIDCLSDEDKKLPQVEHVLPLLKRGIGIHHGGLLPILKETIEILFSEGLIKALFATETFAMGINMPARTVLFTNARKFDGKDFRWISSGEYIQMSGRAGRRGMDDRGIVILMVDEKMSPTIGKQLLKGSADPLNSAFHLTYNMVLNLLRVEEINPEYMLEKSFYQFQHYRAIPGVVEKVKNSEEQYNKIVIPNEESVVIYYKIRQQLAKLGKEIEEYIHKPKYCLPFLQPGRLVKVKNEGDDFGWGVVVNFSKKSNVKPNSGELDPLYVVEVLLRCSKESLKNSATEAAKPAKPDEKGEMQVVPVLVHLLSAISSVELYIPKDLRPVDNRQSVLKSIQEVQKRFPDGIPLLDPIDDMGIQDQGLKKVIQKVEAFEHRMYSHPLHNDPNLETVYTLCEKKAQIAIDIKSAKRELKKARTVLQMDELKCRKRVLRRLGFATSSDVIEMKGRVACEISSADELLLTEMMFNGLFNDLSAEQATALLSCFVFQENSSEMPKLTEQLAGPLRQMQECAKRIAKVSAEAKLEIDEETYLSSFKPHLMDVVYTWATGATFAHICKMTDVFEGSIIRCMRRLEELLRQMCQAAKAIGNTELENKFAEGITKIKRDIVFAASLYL

MTR4-KOW = target: T4, MTR4-KOW (human, UniProt P42285 645-787); experiment: NMR titration; 1H-15N HSQC of 53 μM 15N-labelled MTR4-KOW with 0.25, 0.5, 1, 2 and 6 molar equivalents of unlabeled NVL^167–216; 298 K; phosphate buffered saline, 10% D2O
T4 construct: human MTR4 KOW domain, residues 645–787; Named without GST in MST, NMR and ITC; the methods say the His-GST tag was cleaved with 3C protease 'when appropriate', so it was probably removed; Isotope-labelled for NMR; also called unlabeled MTR4 KOW; 15N-labelled MTR4-KOW; source: E. coli BL21 star (DE3), purified (Ni-NTA, heparin, SEC); minimal medium with 15N/13C for NMR
T4 sequence (looked up): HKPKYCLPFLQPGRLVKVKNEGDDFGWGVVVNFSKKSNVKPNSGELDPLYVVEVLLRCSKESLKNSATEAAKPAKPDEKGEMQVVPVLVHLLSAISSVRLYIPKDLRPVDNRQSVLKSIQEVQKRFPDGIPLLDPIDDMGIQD

MTR4∆N2 (70–1042) = target: T5, MTR4∆N2 (70–1042) (human, UniProt P42285 70-1042); experiment: crystal structure; MTR4∆N2 (70–1042) mixed with 2 molar excess of NVL (167–216), with ADP and MgCl2; 3.07 Å, space group P6(1); PDB 6RO1
T5 construct: human MTR4; Crystallised with ADP and MgCl2 in the buffer; source: E. coli, purified; GST fusion cleaved with TEV; not shown: GST, N-terminal, cleaved
T5 sequence (looked up): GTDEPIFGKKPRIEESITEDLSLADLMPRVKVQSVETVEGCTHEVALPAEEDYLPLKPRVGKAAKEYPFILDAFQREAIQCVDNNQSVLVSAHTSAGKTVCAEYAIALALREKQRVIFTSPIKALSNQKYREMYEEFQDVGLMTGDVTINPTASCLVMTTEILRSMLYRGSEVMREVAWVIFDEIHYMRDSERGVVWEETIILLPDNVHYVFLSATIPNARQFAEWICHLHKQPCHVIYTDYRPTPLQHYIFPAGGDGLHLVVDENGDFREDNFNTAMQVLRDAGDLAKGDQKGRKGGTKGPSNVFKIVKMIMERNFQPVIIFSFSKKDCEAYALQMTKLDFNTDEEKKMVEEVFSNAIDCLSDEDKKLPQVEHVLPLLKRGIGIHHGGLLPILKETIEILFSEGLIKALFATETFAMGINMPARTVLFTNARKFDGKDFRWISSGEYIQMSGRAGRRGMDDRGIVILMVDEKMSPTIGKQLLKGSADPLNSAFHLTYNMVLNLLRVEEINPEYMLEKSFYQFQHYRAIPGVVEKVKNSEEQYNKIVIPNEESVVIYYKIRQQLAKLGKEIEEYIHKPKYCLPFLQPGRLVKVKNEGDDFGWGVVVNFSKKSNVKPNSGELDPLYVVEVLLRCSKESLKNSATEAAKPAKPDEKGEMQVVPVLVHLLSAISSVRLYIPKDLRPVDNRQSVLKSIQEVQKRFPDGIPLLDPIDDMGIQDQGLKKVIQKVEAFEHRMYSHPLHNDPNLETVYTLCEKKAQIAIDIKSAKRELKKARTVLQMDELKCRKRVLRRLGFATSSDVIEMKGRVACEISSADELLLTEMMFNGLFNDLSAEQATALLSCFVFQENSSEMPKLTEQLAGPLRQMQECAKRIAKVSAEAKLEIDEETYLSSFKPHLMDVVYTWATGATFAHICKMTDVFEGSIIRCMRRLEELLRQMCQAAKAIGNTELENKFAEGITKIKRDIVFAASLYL

MTR4-∆N = target: T6, MTR4-∆N (human, UniProt P42285 75-1042); experiment: ITC; 500 µM NVL injected into 40 µM MTR4-∆N; 25 °C; 50 mM Hepes/NaOH pH 7.5, 150 mM NaCl, 0.5 mM TCEP
T6 construct: Used in ITC, named without GST; the tag was probably cleaved ('when appropriate'); also called MTR4-∆N (the reactant); source: E. coli BL21 star (DE3), purified (Ni-NTA, heparin, SEC)
T6 sequence (looked up): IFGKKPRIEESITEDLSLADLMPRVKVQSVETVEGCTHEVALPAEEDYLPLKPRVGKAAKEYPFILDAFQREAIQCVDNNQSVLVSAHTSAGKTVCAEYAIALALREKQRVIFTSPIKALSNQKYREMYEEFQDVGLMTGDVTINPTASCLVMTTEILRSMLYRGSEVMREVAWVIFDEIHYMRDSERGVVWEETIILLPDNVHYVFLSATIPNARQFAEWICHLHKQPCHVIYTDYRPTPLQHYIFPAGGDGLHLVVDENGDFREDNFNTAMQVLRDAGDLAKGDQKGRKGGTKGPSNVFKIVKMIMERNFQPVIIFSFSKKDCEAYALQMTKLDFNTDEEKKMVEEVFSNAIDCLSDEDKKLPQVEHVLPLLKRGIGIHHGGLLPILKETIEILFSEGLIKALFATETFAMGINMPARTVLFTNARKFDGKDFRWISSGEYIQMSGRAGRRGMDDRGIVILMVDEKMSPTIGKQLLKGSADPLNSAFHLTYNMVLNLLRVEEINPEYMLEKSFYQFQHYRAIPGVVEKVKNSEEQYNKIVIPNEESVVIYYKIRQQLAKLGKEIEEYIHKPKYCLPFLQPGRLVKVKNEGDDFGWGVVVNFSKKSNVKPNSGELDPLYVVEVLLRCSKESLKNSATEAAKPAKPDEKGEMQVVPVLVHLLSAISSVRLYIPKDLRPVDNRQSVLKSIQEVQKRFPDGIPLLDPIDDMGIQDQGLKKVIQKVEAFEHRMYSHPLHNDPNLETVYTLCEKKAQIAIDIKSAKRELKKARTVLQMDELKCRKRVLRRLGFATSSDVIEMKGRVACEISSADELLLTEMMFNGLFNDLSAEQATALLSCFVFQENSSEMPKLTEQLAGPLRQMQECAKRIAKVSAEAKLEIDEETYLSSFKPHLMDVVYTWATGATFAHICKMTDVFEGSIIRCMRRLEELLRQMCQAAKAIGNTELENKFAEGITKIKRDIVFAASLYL

Measured: binding result

B1: Trx-NOP53^84–123 (domain or fragment)
chain: not shown
notes: human NOP53 (also known as GLTSCR2), residues 84–123; also called human Nop53 orthologue; human Nop53; not shown: Trx, N-terminal, kept
binds: GST-MTR4-∆N | GST-MTR4∆N F677E | GST-MTR4∆N R743E

B2: NVL^167–216 (peptide, UniProt O15381 167-216, looked up)
chain: KDSEGGWFIDKTPSVKKDSFFLDLSCEKSNPKKPITEIQDSKDSSLLESD
notes: Named without Trx in ITC, NMR and crystallisation; the methods say tags were cleaved with 3C protease 'when appropriate', so the tag was probably removed; also called NVL peptide; source: E. coli BL21 star (DE3), purified (Ni-NTA, SEC)
binds: MTR4-KOW | MTR4∆N2 (70–1042) | MTR4-∆N
